Results published in the DeepSol protein solubility set.

Experiment: soluble on expression in E. coli; label from the status in PepcDB or PDB records
With “MSSNRQAYYKNNAKEQIGKEKRNEEVVSIRKDKREEAISKRRNINTQIEDDSETSTTPPGPFDANLLRLTVAAAQSSDPAEQLTAVQQARKMLSTDRNPPIDDLIGSGILPVLVQCLSSTDPNLQFEAAWALTNIASGTSEQTQAVVNAGAVPLFLQLLSCGNLNVCEQSVWALGNIIGDGPHFRDYCLELGILQPLLQFINPEIPIGFLRNVTWVIVNLCRCKDPAPSPAVVRTILPALSLLIHHQDTNILIDTVWALSYLTDGGNEHIQMVIEAQVVTHLVPLLGHVDVKVQTAALRAVGNIVTGTDEQTQLVLDSGVLRFMPGLLAHYKEKINKEAVWFVSNITAGNQQQVQDVFDAGIMPMIIHLLDRGDFPTQKEAAWAISNVTISGRPNQVEQMVKLGVLRPFCAMLSCTDSQIIQVVLDGINNILKMAGEAAEQVTSEIEECGGLDKIENLQNHENEDIYKLAFEIIDNFFSSDDETGNVEGAQSSAFGGDVPPVPDAPNGGWNFGK” the “soluble on expression in E. coli” value was “not soluble”. With “MSSQQQESEASGYNTSASSEFGSLEDSHQFVSPVTRHASKRRAVENVDHLDELMKSSMVLSPEKRLRLNTSNDSNLVRNTARSPDSSMNGRPQTRRSTSSDIEISPRVRAMRSTSGSSMDLVRTVSSFCTDSISPKFFTNHGSTTRKRTENGSIYSRHRLGATFSPLVAGAKRKMATPSQSLKRQEKQSPLESRHGGLRSRGTPQRKLLLCDRLKVLN” the “soluble on expression in E. coli” value was “not soluble”. For “MSSQVEHPAGGYKKLFETVEELSSPLTAHVTGRIPLWLTGSLLRCGPGLFEVGSEPFYHLFDGQALLHKFDFKEGHVTYHRRFIRTDAYVRAMTEKRIVITEFGTCAFPDPCKNIFSRFFSYFRGVEVTDNALVNIYPVGEDYYACTETNFITKVNPETLETIKQVDLCNYVSVNGATAHPHIENDGTVYNIGNCFGKNFSIAYNIVKIPPLQADKEDPISKSEIVVQFPCSDRFKPSYVHSFGLTPNYIVFVETPVKINLFKFLSSWSLWGANYMDCFESNETMGVWLHIADKKRKKYINNKYRTSPFNLFHHINTYEDHEFLIVDLCCWKGFEFVYNYSYLANLRENWEEVKKNARKAPQPEVRRYVLPLNIDKADTGKNLVTLPNTTATAILCSDETIWLEPEVLFSGPRQAFEFPQINYQKYGGKPYTYAYGLGLNHFVPDRLCKLNVKTKETWVWQEPDSYPSEPIFVSHPDALEEDDGVVLSVVVSPGAGQKPAYLLILNAKDLSEVARAEVEINIPVTFHGLFKKS”, the “soluble on expression in E. coli” value was “soluble”. With “MSSRKELANAIRALSMDAVQKAKSGHPGAPMGMADIAEVLWRDFLKHNPQNPSWADRDRFVLSNGHGSMLIYSLLHLTGYDLPMEELKNFRQLHSKTPGHPEVGYTAGVETTTGPLGQGIANAVGMAIAEKTLAAQFNRPGHDIVDHYTYAFMGDGCMMEGISHEVCSLAGTLKLGKLIAFYDDNGISIDGHVEGWFTDDTAMRFEAYGWHVIRDIDGHDAASIKRAVEEARAVTDKPSLLMCKTIIGFGSPNKAGTHDSHGAPLGDAEIALTREQLGWKYAPFEIPSEIYAQWDAKEAGQAKESAWNEKFAAYAKAYPQEAAEFTRRMKGEMPSDFDAKAKEFIAKLQANPAKIASRKASQNAIEAFGPLLPEFLGGSADLAPSNLTLWSGSKAINEDAAGNYIHYGVREFGMTAIANGISLHGGFLPYTSTFLMFVEYARNAVRMAALMKQRQVMVYTHDSIGLGEDGPTHQPVEQVASLRVTPNMSTWRPCDQVESAVAWKYGVERQDGPTALILSRQNLAQQERTEEQLANIARGGYVLKDCAGQPELIFIATGSEVELAVAAYEKLTAEGVKARVVSMPSTDAFDKQDAAYRESVLPKAVTARVAVEAGIADYWYKYVGLNGAIVGMTTFGESAPAELLFEEFGFTVDNVVAKAKELLHHHHHH” the “soluble on expression in E. coli” value was “soluble”. In the case of “MSSSGVYTCNSCVLTFDSSDEQRAHMKSDWHRYNLKRRVAQLPPISFETFDSKVSAAAASTSKSAEKEKPVTKKELKRREKQALLEKKKKLLEIARANMLENMQKSQEGNTPDLSKLSLQENEENKEKEEPKKEEPEQLTEEEMAERVMQENVRNRVDIPLEQCLFCEHNKHFKDVEENLEHMFRTHGFYIPEQKYLVDKIGLVKYMSEKIGLGNICIVCNYQGRTLTAVRQHMLAKRHCKIPYESEDERLEISEFYDFTSSYANFNSNTTPDNEDDWEDVGSDEAGSDDEDLPQEYLYNDGIELHLPTGIKVGHRSLQRYYKQDLKPEVILTEGQGTLVAAETRSFLPAFDKKGVQTQQRVWQTERFDKKRLDKRSAKFVNNQPHYRDQLLQ”, the “soluble on expression in E. coli” value is reported as “soluble”. For “MSSSTKTLSQTYGPRPQSFSLDEAGERYYIGSEIGAYLRLHRGTLYKKYPLLWRKVATSDDKDKLKQIAMSNAFLHTNIMLLRAHEVDELLDGSEEKYRAAGAAPSTPRTEGASRTVAKTPATGWAGQQVTSGSHHLESVPCSCPIAHSRGRMKHRELVYSAEDLEMSKRVMKNAEEGEDLVPIRLDMELDGIKLRDTFTFNKNEKMITPEMIAEIMCEDLDLPLAVFQPAITAAINQQLEASTEAPPLDVNICDQRAVLKLNINVGNQSLVDQFEWDMSDPNNSPEEFSRNICKELGLGGEFMSGIAYSIRGQLQWNQRTYAFSESPLATVDCPFRTSSEVESWGPFLETLTDAEIEKKMRDQDRNTRRMRRLVGGGFNY”, the “soluble on expression in E. coli” value was “not soluble”. With “MSSTQEASVTDLPVKRPREAEEDNNGGAMETENGGGEIKEPSCMSSIIPGWFSEISPMWPGEAHSLKVEKILFQGKSDYQDVIVFQSATYGKVLVLDGVIQLTERDECAYQEMITHLPLCSISNPKKVLVIGGGDGGVLREVARHSSVEQIDICEIDKMVVDVAKQYFPNVAVGYEDPRVNLIIGDGVAFLKNAAEGTYDAVIVDSSDPIGPAKELFEKPFFESVNRALRPGGVVCTQAESLWLHMDIIEDIVSNCRDIFKGSVNYAWTSVPTYPSGVIGFMLCSSEGPQVDFKKPVSLIDTDESSIKSHCPLKYYNAEIHSAAFCLPSFAKKVIDSKAN” the “soluble on expression in E. coli” value was “soluble”. With “MSSVMSHTGGKEGTYPGTRASATMIGDDETNWGTKSLAILDMPFTAVMDTLLLPWDVFRKDSSVRSRVEKSEANAQATNAVIPPARMPDNLEHHHHHH” the “soluble on expression in E. coli” value was “not soluble”. For “MSSYFPVYLDLKDKEVLVIGGGRVATRKVKTLLEFTKNITIVSPKVTEELKNLIKEKKIKWIDRKFKPSDLKDKFLVVVAVDDIKLQKRVFNLCEKRGILCNSVDSPKYCNFIFPSIIKRGDLVISISTSGKVPALSRALREKIEECLPENIEEIMKELEIIRKSEEKGEERQKKLLRLARELLKNFLEHHHHHH”, the “soluble on expression in E. coli” value was “soluble”. In the case of “MSTAFAIPLFQFSPKPLHWKKRIAMWKAEIMDIKTTETGSRGEYSATIDGHKAQMTYSRTSPSLIIIDHTGVPDALRGKGVGQALAAHAIDEARKGGWKIIPLCPFFKAQTLRHADWADVIQGLEHHHHHH”, the “soluble on expression in E. coli” value is reported as “soluble”. With “MSTASVLDDIDYDSSFEMVEEEKFEKIENTDNSENFQYVSTKGNTVKEVNINSNEKKKKEAPIQILTAMIGKWKLASSENLQEYFTLEKFPEITQMAWEHGITCYKMNGNQLHVHTDLLGKSLIPTIFEFDKPIARDDNAVSTHAEGNMMSTICKRIADGSIVWKVERLIKNGNLVVFNSRGNFRCKRVYKRVN” the “soluble on expression in E. coli” value was “not soluble”. For “MSTCKQFLSTKKKSKDSYEFIENLGEGSFAEVVLVAKVGTPNKMFAMKEISIVGKDECFMESIKRECSIQKRLSKSRHLNMIHLFEIRTNPENYQLILSYADGGDLFEKINQHGGLGSDEAHRYFKQLIDGLRFIHEEGVTHRDIKPENLLLTKSGILKIADFGFATMHRFNGAEQMLNAYCGSPPYIAPEVLTGIDYRGPAVDIWSAGVVLIAMIAGAVPWEQADHFDIFQSRYCSFRRNGRKGAWSRMSQQVISLLRKILLQAELRATISMIEEDPWFIYGEEVDAENKENGSQAQYRQESQTSSKPILNFENLLKDLNVSI”, the “soluble on expression in E. coli” value was “not soluble”. With “MSTEYGCQVTNKFGLPSDDDDEYDDPRELIQKVSQIAAKKKEEKSVKPAQPVKPAAAPVAATKTDGAAGRGRGGRGRGRGGAGRPRDGERVSNENGDRPQGENRRGGPRRGGERGAARPAGRGGRGGFTRENREGEEPKQEVSFEDGQDTRAPRRRGGFTLGGGPSGGRGGGRGGRGRQFDRQSGSDRTGVRSFDKKDGHGKGNWGDQKDELAGETENIAPEGAESTEPEVPREKTAEELAYEAELAVLAKQKTLKEFKAAAKADAPKFNTRKAGEGAADTFGKLVPIKKEVIPDREEDEVVVIHKAPRKQVLDISITFRNDRPERERNDRSERPQRGGPRGGGRGGGRGGQRQGGHGGRNNTPFNASDDAFPALGAK” the “soluble on expression in E. coli” value was “not soluble”. With “MSTFSFIIVNNEQVRIHDIQGKSHMSPYNGKKVNNVEGVVTALDKNGFYIEDNQPDNDPATSEGMYVYKKDANVAVGDLIQVDGVVEEYVGPGYAERFETDLTTTEIKASRVVVIAKDQSLPAPIVLGENGVKIPDQIIDNDAFGLFDPNEDAIDFYESIEGMRVTMPTPKVIAPQKNGNLYVTVKNGGDKIVTQYGTPLLDENQLNPERLSVKVPRDYVAKVGDTFTGDITGVVGYDYGSFRISPITELPAVVDGGFKQVGANIQPRLDKLTVATYNIENFSANKKETTDEKVKALAYSIKYNLKMPDIIGVEEMQDNNGSINDLEHHHHHH” the “soluble on expression in E. coli” value was “not soluble”. With “MSTGGFQKDQAINILLIGTDKRTGSGNDGYGDKGSAGHADTTLLLHVSKDRSNATALSIPRDLIVDVPDCPTTQEDGSTKVIPGSTGVRFNTSLGQSGRTPSCTMRTVTELTGVTPDNFMVADFNAVKTLSSAVGGVEVCLAKDIDDPDSHLNLPAGKHTVEGEEALAFVRTRHSVGFGGDLSRIELQQQFLSSLMRKLKSNDTLTSPTKMVKLAEAGTDALTVDAKLKSIGKLKDLGLELGKLDTKNLTFATVPVKDNPAEKTPVTVVLKDGPAQQVFDMVKNDVSFTEVKKQEKEKKDKEEAAVAARLEGKKSEPSEVRVRVLNGGASSGSAGRELTYLQNEAGVTKSENAGNAPADIAKTTLEYAPDQADQARALAEILGLTGAAMKPGESVTNSQGLPAMTLTLGKDFKGAGVKLDATSAKAPEDLQKSTADKVECAKLEHHHHHH” the “soluble on expression in E. coli” value was “soluble”. For “MSTGRTAITQPLRRLMRCSRALRRGTWPCSIGLQGIPIKSTPLQLRSCAQRLTFPGTSTGFLWEVWAMSYLRYVKIIGTVHVSPESVREVRETIIREKPDAIALELDYPRLLALLRRERLTLPQALKLGKMGIFGFILQELEMFFGRSFGESPGEEMIEAYKAAASLGIPVYLIDKPVNETLAGMLSSPPIEKLRFGIEVLASLLPGKLKELDYSYLMKEFREKFPHMYKVLVEERNLYMAINLMRIVDSLLEKKKKVKVVAVVGLGHKKGIERILNAHKPRAVKINSL”, the “soluble on expression in E. coli” value was “not soluble”. For “MSTHGSLSEVERFNLLYKSSFNKVCNFACFYVRNKQASEDITMDAFLQLLETMKVESVDNPMALLITIVKHKSLDYLKTQVRREDTKDDLIQWKQRELAIRISNLEGCNPSYIFSQEIKSIVMKTLNQLPEQTKKVFIMNRFENKSGKEIAQTLGISVKGVDYHMNKALKELRAALKDYLPILTWLCFMNPINKG”, the “soluble on expression in E. coli” value was “not soluble”. With “MSTLKVVSSKLAAEIDKELMGPQIGFTLQQLMELAGFSVAQAVCRQFPLRGKTETEKGKHVFVIAGPGNNGGDGLVCARHLKLFGYNPVVFYPKRSERTEFYKQLVHQLNFFKVPVLSQDEGNWLEYLKPEKTLCIVDAIFGFSFKPPMREPFKGIVEELCKVQNIIPIVSVDVPTGWDVDKGPISQPSINPAVLVSLTVPKPCSSHIRENQTTHYVGGRFIPRDFANKFGFEPFGYESTDQILKL” the “soluble on expression in E. coli” value was “soluble”.
